In a protein production outcome set (Wang et al. 2014):

Test: label from the status in PepcDB records

Row | Sequence | protein production
1 | MPRPSLRRGEETSGARSLHEIAPPAEKAVRKPLNLLPFRKDTPMTKDSYFHKSRAGVAGAPLFVLLHGTGGDENQFFDFGARLLPQATILSPVGDVSEHGAARFFRRTGEGVYDMVDLERATGKMADFIKANREHYQAGPVIGLGFSNGANILANVLIEQPELFDAAVLMHPLIPFEPKISPAKPTRRVLITAGERDPICPVQLTKALEESLKAQGGTVETVWHPGGHEIRSGEIDAVRGFLAAYGG | not failed
2 | DDSLGEAVTTRAEALTIPAVLRARNLLSTTVARTPLVCDGTLPPFVPVAAPPGAATMQTPFHRMLATADDLLFNGVACWALDRDESGTCIGAIHIPLDTWQIEENTVRVNGKAVDPMEVCIFVGIHGGLLTHASETFTDARNLVRAAARVAQNPAALIELRQTNNAQLSPDDVDRIINGYVAARRGRNSGVGFSSSGLEVHEHEMAKENLLIEGRNAAAVDVARAMNVPAAFIDATVGGTSLSYQNAASRMIELVTFGVEPLMSAIEARLNQPDMHADHLANPLKFDPAALLDAIPTTPTIG | not failed
3 | MTQQTFLVEIGTEELPPKALRSLAESFAANFTAELNNANLPYGEVIWYAAPRRLALKVTNLSATQADREVEKRGPAIAQAFDAEGKPSKAAEGWARGCGITVDQAERLVTDKGEWLLYRAHVKGQSAQLLLAGMVNTALSKLPIPKLMRWGDKDTQFVRPVHTVTMLLGSEVIPGTVLGIDSDRIIRGHRFMGEPEFTLDNADQYPQVLQERGKVIADYELRKAIIKRDAELAAQKIGGVADLSESLLEEVASLVEWPVVLTAKFEEKFLAVPAEALVYTMKGDQKYFPVYDTAGNLLPNFIFVANIESKDPQQIISGNEKVVRPRLADAEFFFKTDRKKRLEDNLPRLETVLFQQQLGTLRDKTDRIQALAGWVAAQIGADVNHATRAGLLSKCDLMTNMVFEFTDTQGVMGMHYARHDGEAEDVAVALNEQYQPRFAGDDLPSNPVACALAIADKMDTLAGIFGIGQHPKGDKDPFALRRAALGVLRIIVEKNLPLDLQTLTEEAVRLYGSKLTNTKVVDEVIEFMLGRFRAWYQDEGHSVDTIQAVLARRPTRPADFDARVKAVTYFRTLDAAAALAAANKRVSNILAKSTDKLNDHVRASVLKEPAELKLATHLVVLRDKLEPVFAAGQYQEALVELAALRETVDEFFESVMVMDEDDAVRVNRLTLLSKLRELFLQVADISLLQ | not failed
4 | MIIKPAGDSAFLISFGDEISEEINDRVHSLAKAIEKESPEWLVELVPAYSSLLVIYDPLKASYEEVESYLKRISAREVERIKGKTIEIPVAYGGEFGPDIEFVAQYNGLSVDDVIEIHSKPLYRVYFLGFLPGFAYLGGMDERIATPRLEKPRLKVPAGSVGIAGKQTGWYAIESPGGWRIIGRIPLRTFNPGKVPPSIVLPGDYVKFVPIDEKEFWEIYGREWE | not failed
5 | PPHYDYAIGIRGDSMLPKYEQGDMLYIVDKGMSTYSGQLCIVVHNGNTYFKKVYTEHDGLRLVSLNKKYSDIFIGYPPAEDTYIKIYDVVGSFTPIEF | failed
6 | MSFKEEQVIKHHQDLANKSVSTFLLLGLDNSGKRKLSTSRTDGMMVVIVNHKTKTITLCSLLRDTFTKIYSQQYHGYQRIETAYTYGGDAAAVATVEHFLKLPIDYYVTLNWDGFIQAINDIGPLSVRVDRAFVGQNYWGHAVHFKAGLQEMNGARALAYARERHVDNDQYRGFRQQAVLYALLKRLNQGALVAKGSQIMGDVKGQVRTNMSEGDMLSLIKYRTVLKHYRVKRVTFQWRTFDTAGRSMVEVYPDSRQHTIAELQAAAGRRAPLEHHHHHH | failed
7 | MLKGPLKGCLNMSKKVIVIAGTTGVGKSQLSIQLAQKFNGEVINSDSMQVYKDIPIITNKHPLQEREGIPHHVMNHVDWSEEYYSHRFETECMNAIEDIHRRGKIPIVVGGTHYYLQTLFNKRVDTKSSERKLTRKQLDILESTDPDVIYNTLVKCDPDIATKYHPNDYRRVQRMLEIYYKTGKKPSETFNEQKITLKFDTLFLWLYSKPEPLFQRLDDRVDDMLERGALQEIKQLYEYYSQNKFTPEQCENGVWQVIGFKEFLPWLTGKTDDNTVKLEDCIERMKTRTRQYAKRQVKWIKKMLIPDIKGDIYLLDATDLSQWDTNASQRAIAISNDFISNRPIKQERAPKALEELLSKGETTMKKLDDWTHYTCNVCRNADGKNVVAIGEKYWKIHLGSRRHKSNLKRNTRQADFEKWKINKKETVE | failed
8 | MGENVLICLCGSVNSINISHYIIELKSKFDEVNVIASTNGRKFINGEILKQFCDNYYDEFEDPFLNHVDIANKHDKIIILPATSNTINKIANGICDNLLLTICHTAFEKLSIFPNMNLRMWENPVTQNNIRLLKDYGVSIYPANISESYELASKTFKKNVVAPEPYKVLEFI | not failed
9 | MKSRTSELAAGIFVIIFGVALFFLAMKVSGLAGTNLSDPYTMTAQFDNVNGLKPRAKVTMSGVTIGRVDAITLDPVTRLATVTFDLDGKLTTFNAKQLKTVEQNALEELHYSSDYKSAEPAKQKVMEQQLIDNMKSITSIDEDAYIMVSTNGLLGEKYLKIVPGGGLNYLKRGDAITNTQGTMDLEDLISKFITGGAGKSSDNSTGTAAQSSSSEDKEPSFTELEHHHHHH | failed
10 | MSSEHSANGGPASAYGKPTFARASTPLPIQSAHMASDPIQITPSLTIPPSELVERFVRASGAGGQNVNKVSTAVELRFDVAGSPSLPEPLRARLLSRRDRRMTAEGVLVIDAQRFRTQDRNRDDARERLAEIISACLSVPKRRVATKPSHGAKLRRLDAKRERSHIKRGRSASHWE | failed
11 | MEWEIVNLDMTFKVDAPVEEVFRAWTKPSLFKQWFMTTEETNKVAKNQFEINGDWEIIDVREGVEYRAIGTYIDIVSPYKLTFSFKMPQFSELEDIITVEFVDLTGATEVKFNQGIKVPFEGDTNDFEADKTEVKKEMETGYNLMFERLKQLCEG | failed
12 | MPSHTDENWELAIQTPAITDRSLAAGLAYAMGSRVNGISFDAATGLLMGKVRGTGPQPYSTSAKLVRKPSGWSCTVGICNCPVRKDCKHVAALLFTAEDHPTIRAQLLSQAPGIQTSRVGSGQQGGSARPAWEQALNRLITKPGTAPSAAGIPLALQFEVEEPAAHFSYTGRRDPMRSVRQLKARPVMMGAKGKWIRGDVSWNNLSYVSFRREFNEVHVEWLQTFLAAHGSSNGRQQPSGAMWLSLNDFAAKNLWTLLAEATKAGIPLIHSAGSEPVRVETQPAVVGLSLARLATDPDTAKHEAPDGGLQLAPSVTLGGEAVDPGSVGFLGKPANGIFFTHSGDSLPGVPQQKNLITLAPMEGGISDELLEFVMDGDTLQIPAEDESRFLTSFYPKLRQSTPVQAADESVELPTLAVPTLSLLANYGNDHKVRLHWEWHYKSGTLVTSQPLWRHPDDRGYRDDLEEARILESLGRPWDVVPALAESATGGWGAPRIAASAELSGLDTLAFTEEVLPALKDLPDVVVETSGDIADYREAAEAPVVSISTKETASGDWFDLGIVITLEGEPVSFAAVFSALAAGMSRMLLPSGAYFSLDLPELHQLRALIDEARSLQDNPDNKDGTLQISRFQAGLWDELAQLGIVDEQAAAWREAVGGLLDDGVTGLPLPAGLNAELRPYQLEGFNWLSFLYKHSLGGVLADDMGLGKTVQAIALICAAKDLAAETAAAAQGDASEVVPRAPFLVVAPTSVVSNWAAEAQRFAPGLVVRTVGETFAKSGMAPAEALAGADVVITSYALFRIDYDAYASFQWAGLMLDEAQFVKNHQSKAYQCARKLPARFKLAITGTPLENNLMEFWALTSIVAPGLFPSPKRFAENYQKPVEKNGDSAQLGKLRRRVRPLMMRRTKEQVIKDLPPKQEQILEVVLNPRHQKVYQTHLQRERQKILGLIDDVNKNRFTIFQSLTLLRQLSLDASLVDSSLSGVRSSKLDVLFEQLEDLISEGHRALIFSQFTGFLGKVRERLDAEGVEYCYLDGSTRNRGDVVSEFKNGAAPVFLISLKAGGFGLNLTEADYVFLLDPWWNPASEAQAVDRTHRIGQARNVMVYRLVAKDTIEEKVMALKAKKSQLFADVMEGDALAGGSLTADDLAALFAE | failed
13 | MLHLKVQFLDDSQKIFVVDQKSSGKALFNLSCSHLNLAEKEYFGLEFCSHSGNNVWLELLKPITKQVKNPKEIVFKFMVK | failed
14 | MSDVRTNEAEKRHAHPDFDAARFPADARVRVLARRFPPYHRDSPCLAILDRFLHDPTLSAAAVVDDAMRPVGLIDRYSLVEQFLHPYSRDLYHKHSIAAFMDPEPVIVEADSSIDDLSRIIIDAGMRHMVSGFIVTEDGLYLGIGSGHDLFEEVANRKQNHLYHLAHYDPLTSLPNRLLLNDRLKRACLRGQRGGYRIALLFIDLDRFKLVNDTLGHAAGDQLLQGVAGRFAACVRKVDTVARLGGDEFTVLLEPVQGPDEALAVAAKLAQSLERPFLIQNHEITTSASIGVVLFPEHDATVEGLMRKADAAMYCAKREGRNRFALFTEEMNSTVVERVTLESYLNAALEKGEFCCHFQPQMATADDRIVGVEALLRWTNPVLGRVPPLKFIPVAEDTGLILPLGLWALETACAQQVRWLSQGLPPLRMAVNISPLQFRNREFCDQVRAIVQRTGIRAEHLELELTESAVMADAESSVGILRELRDSGIRLAIDDFGTGYSSLSYLRKFPLDRLKIDRSFVSGIDRIPANELIVKAIVALGGSLGLDVIAEGVETPEELECIERCGCSEYQGFRLSEPLTAEDFAHWFEDSGYV | failed
15 | MSVLPCFSLMCSLSLGEVKAVKIKPMLARLQSAMGRDDLIDQMVLLPEPQKGQTTQSINLIVGYDASPNSHTALDIACWIAHQTRLATNQQVTVQAVYVVEDSNTKNRSNILSFAKRLPTIELPPSETKKSSTSVITQPKLTGIKSYLQTDTLTPLQEADRIIWQARTLAEEWQGSFKSHLRFGCVSTELRKVAEFEAADILFLGCKSVYHPLIETLGYNFPCAVLGIPECIDE | failed
16 | MSVTFSYLAETDYPVFTLGGSTADAARRLAASGCACAPVLDGERYLGMVHLSRLLEGRKGWPTVKEKLGEELLETVRSYRPGEQLFDNLISVAAAKCSVVPLADEDGRYEGVVSRKRILGFLAERI | not failed
17 | MTKDRQIKKTKTAIYSAFIALLQKKEYSKITVRDMITLANVGRSTFYAHYESKEMLLKELCEELFHHLFRQKRNVTFEDYLVHILKHFEQNKDSIATLLLSNDPYFLLRFKNELEHDVYPNLRCKYIDKTTIPEVFLKQFVLSSFIETLKWWLHQRQRMSANELLKYYLELIK | failed
18 | MIPDLVPVSLTPVTVVPNTVNTMTATIENQGNKDSTSFNVSLLVDGIVVDTQTVTSLESENSTNVDFHWTLDGTANSYTLTVNVDPENAVNEGNESNNTLTALVGTLEHHHHHH | not failed
19 | MNATSTAPSSRHTLRSLAGDVFELLGSMRFAVSLLMFICIASIVGTVLAQNRPSNVYVDQFGPFWFEVFDKFSIWHVYNSWWFLLIMTFLVVSTSVCLIRNTPKMLREARSFREHVRASSLRAFPHRLQTEVAQPVSETAQGVTGLLGQFGYAVRERRDGDGIMLAAKKGSANRLGYIFAHSAMVIICIGGLLDSEAPVRLQVLFDGKQPIAINGEMARADIPDSALLSVNNPSYRANLWVPEGSNASLATIAVNDRSLVQPLPFSLRLKKFTVDYYSTGMPSRFLSLVEVTDPETGEMFDQTIEVNEPLRYKGVTVYQSSFDDGGSSVSLTGYPLVGAGDTPFKVDGVVGQTSEIGARIGDQPKSMKIEFTALRVINVEDFSGGQPGAQNLSLREHVASVAGSAAGKKNENLRNVGPRIDYKLIDDAGQAHEFQNYMLPVVLDGVPVFLSAVRNNPADDFQYLRIPADDQGSLAEFMRLRAALADPAARQEAARRFAERNAPSGTDRQPLETAAQRALATFAEGGLQAIADFLQANTAPDDLERAAGIVVRLVGASVAELRDIARARAGLPALPQSGPQADEAAQWSRVAVAALSDLAFYPAPVMFSLTDFQERQGSVFQVARTPGKNAVYLGCVLLILGIFAMFYIRDRRVWVWVKPAADGAGSSIEAAMTSQKRTLDFNQEFDRLREALLRQSKP | failed
